Consider one molecule from patent publication US20140357851A1.

In this test the target is PCSK9 S123R (human) (UniProt Q8NBP7). The experiment in a line: Luminex bead assay.

B1: 21B12 (isotype as tested not stated) (antibody, V domains shown)
VH: QVQLVQSGAEVKKPGASVKVSCKASGYTLTSYGISWVRQAPGQGLEWMGWVSFYNGNTNYAQKLQGRGTMTTDPSTSTAYMELRSLRSDDTAVYYCARGYGMDVWGQGTTVTVSS
VL: QSALTQPASVSGSPGQSITISCTGTSSDVGGYNSVSWYQQHPGKAPKLMIYEVSNRPSGVSNRFSGSKSGNTASLTISGLQAEDEADYYCNSYTSTSMVFGGGTKLTVL
For the molecule B1, the BmaxPerWT (% of wild type) was determined as 87.6 and the RawMaxPerWT (% of wild type) stood at 88.1.
